Data as given in US7307143 (MAX DELBR CK INSTITUT FUR MOLEKULARE HEDIZIN, dated 2007).

B1: conductin β-catenine binding domain (amino acids 397-465) (other)
chain: QIREDEEKEGSEQALSSRDGAPVQHPLALLPSGSYEEDPQTILDDHLSRVLKTPGCQSPGVGRYSPRSR
notes: also called b-BD
B2: conductin GSK 3b-binding domain (amino acids 343-396) (other)
chain: ANGQVSLPHFPRTHRLPKEMTPVEPAAFAAELISRLEKLKLELESRHSLEERLQ
notes: also called GSK BD
B3: conductin disheveled homology region (amino acids 783-833) (other)
chain: LTLGHFKEQLSKKGNYRYYFKKASDEFACGAVFEEIWDDETVLPMYEGRIL

Target: T1, Adenomatosis Polyposis Coli (APC) (UniProt P25054 2-2843, limits assumed)
T1 construct: Stands for 'APC' where the sentence names no fragment; also called tumor suppressor protein APC
Test: yeast 2-hybrid, partial pieces of conductin

T1 sequence (P25054 2-2843 limits assumed): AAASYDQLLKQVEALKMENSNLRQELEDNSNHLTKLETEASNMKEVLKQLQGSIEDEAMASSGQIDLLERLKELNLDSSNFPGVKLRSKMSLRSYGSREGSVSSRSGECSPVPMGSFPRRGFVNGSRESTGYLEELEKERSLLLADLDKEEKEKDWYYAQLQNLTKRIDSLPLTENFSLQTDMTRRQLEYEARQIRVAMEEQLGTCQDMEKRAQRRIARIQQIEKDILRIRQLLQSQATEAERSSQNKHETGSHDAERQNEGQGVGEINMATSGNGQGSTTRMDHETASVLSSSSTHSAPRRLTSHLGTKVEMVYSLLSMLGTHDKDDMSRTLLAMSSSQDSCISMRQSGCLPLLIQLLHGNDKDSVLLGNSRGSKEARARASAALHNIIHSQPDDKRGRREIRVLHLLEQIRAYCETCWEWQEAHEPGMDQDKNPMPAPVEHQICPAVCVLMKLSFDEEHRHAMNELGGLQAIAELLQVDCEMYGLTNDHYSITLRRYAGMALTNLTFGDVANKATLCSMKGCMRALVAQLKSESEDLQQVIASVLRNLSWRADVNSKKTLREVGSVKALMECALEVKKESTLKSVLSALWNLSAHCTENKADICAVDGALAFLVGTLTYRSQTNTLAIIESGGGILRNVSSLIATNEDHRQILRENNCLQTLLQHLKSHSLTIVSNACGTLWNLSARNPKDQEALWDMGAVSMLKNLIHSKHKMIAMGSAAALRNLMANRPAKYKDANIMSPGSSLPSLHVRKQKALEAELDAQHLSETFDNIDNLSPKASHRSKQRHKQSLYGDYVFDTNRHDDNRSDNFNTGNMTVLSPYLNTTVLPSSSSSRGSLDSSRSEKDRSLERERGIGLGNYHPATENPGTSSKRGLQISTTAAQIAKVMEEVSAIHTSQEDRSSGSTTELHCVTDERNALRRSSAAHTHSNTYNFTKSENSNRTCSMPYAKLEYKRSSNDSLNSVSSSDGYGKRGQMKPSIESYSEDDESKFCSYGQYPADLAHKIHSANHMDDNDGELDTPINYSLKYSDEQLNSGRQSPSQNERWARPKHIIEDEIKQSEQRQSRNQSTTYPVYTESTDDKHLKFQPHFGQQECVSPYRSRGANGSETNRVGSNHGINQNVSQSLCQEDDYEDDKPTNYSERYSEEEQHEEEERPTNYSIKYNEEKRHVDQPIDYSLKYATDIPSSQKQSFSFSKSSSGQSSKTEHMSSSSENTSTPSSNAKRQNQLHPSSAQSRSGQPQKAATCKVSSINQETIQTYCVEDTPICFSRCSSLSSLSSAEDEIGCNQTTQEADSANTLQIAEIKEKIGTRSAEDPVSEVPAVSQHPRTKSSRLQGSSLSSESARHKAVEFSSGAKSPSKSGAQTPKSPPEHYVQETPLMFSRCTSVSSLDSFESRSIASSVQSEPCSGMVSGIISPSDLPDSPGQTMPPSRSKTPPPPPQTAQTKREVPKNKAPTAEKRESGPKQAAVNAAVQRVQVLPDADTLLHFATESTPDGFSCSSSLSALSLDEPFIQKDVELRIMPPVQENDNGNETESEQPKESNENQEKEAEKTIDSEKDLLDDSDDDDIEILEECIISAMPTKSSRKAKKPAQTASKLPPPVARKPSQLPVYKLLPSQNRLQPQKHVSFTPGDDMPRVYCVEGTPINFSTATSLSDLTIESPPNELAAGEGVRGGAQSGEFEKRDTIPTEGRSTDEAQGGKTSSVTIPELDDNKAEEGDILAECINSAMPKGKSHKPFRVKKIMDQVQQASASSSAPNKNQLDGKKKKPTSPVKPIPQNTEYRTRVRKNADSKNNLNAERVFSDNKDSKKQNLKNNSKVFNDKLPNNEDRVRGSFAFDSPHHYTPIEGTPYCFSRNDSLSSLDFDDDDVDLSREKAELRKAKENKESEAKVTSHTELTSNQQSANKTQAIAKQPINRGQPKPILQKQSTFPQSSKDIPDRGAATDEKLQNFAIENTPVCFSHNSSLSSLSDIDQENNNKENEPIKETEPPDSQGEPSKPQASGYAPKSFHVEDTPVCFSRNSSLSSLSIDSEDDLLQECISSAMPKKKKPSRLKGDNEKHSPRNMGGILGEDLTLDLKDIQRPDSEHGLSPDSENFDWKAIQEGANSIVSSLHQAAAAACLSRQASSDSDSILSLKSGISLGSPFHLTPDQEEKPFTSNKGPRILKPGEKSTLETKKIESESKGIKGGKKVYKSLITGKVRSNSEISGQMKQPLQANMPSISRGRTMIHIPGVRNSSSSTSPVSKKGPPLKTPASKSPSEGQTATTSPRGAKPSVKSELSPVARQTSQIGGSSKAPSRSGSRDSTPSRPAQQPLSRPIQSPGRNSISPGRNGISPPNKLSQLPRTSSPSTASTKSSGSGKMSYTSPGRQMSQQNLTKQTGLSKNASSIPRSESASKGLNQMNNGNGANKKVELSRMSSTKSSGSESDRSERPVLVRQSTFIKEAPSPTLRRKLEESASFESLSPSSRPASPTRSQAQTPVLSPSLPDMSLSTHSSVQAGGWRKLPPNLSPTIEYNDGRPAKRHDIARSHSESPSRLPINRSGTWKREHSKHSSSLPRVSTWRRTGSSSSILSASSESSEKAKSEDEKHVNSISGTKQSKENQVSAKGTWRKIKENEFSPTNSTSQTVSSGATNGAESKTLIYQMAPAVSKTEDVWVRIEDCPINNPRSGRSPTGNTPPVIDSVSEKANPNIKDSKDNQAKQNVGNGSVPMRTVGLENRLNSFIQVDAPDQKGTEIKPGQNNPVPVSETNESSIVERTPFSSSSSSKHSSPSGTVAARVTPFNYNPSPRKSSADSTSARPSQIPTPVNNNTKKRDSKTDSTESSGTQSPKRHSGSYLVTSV

Binding result, no binding:
B1
B2
B3
